From PMC5760103, “The translesion DNA polymerases Pol ζ and Rev1 are activated independently of PCNA ubiquitination upon UV radiation in mutants of DNA polymerase δ” (PLoS Genetics, 2017)

Biological target: T1, Recombinant S. cerevisiae PCNA with an His-Tag (S. cerevisiae, UniProt P15873 1-258)
T1 construct: PCNA (proliferating cell nuclear antigen, gene POL30), S. cerevisiae; also called purified PCNA; source: E. coli (pET28c), purified on a HisTrap column
T1 sequence (looked up): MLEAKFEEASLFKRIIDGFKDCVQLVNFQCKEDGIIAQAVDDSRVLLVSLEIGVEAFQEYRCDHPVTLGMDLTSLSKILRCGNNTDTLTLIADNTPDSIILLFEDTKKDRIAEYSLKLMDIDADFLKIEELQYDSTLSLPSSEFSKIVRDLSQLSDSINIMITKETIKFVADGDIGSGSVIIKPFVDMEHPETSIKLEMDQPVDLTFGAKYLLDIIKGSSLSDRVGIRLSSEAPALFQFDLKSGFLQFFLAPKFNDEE
Assay: ITC; VP-ITC; 20–25 μM PCNA in the cell, 270 μM peptide in the syringe; 30°C; buffer T (20 mM Tris pH 7.5, 50 mM NaCl, 20 mM β-mercaptoethanol); single set of independent binding sites model
Conditions: both partners purified

B1: pPol31 317–337 (peptide)
peptide: KSLFDKSLESYFNGSNKEILN
notes: Pol31 (B subunit of DNA polymerase delta), S. cerevisiae, residues 317-337 with the proposed motif LxxYF; also called Pol31 peptide; non-canonical Pol31 PIP motif peptide; source: synthetic peptide, bought: Genecust, 95% purity
With B1 the Kd was greater than 50000 nM.

B2: pPol32 333–350 (peptide)
peptide: KRLKKQGTLESFFKRKAK
notes: Pol32 (C subunit of DNA polymerase delta), S. cerevisiae, residues 333-350 (the C-terminal end; K is the last residue of Pol32) with the PIP motif QxxLxxFF; also called Pol32 peptide; Pol32 PIP motif peptide; source: synthetic peptide, bought: Genecust, 95% purity
B2 gave a Kd of 460 nM and a dH of -4.45 kcal/mol.

B3: pMsh6 22–43 (peptide)
peptide: QKKMKQSSLLSFFSKQVPSGTP
notes: Msh6, S. cerevisiae, residues 22-43 with the canonical PIP motif; also called Msh6 peptide; canonical PIP motif of Msh6; source: synthetic peptide, bought: Genecust, 95% purity
B3 showed a Kd of 310 nM and a dH of -6.4 kcal/mol.
